Entries after “also recorded” stand apart in the source; their conditions may differ.

1 molecule from US8460669B2, “Compositions and methods for identifying response targets and treating flavivirus infection responses” (Academia Sinica, priority 2005, dated 2013) can be followed below.

Test [1] is described as follows: Enzyme linked immunoassay of receptor.Fc fusions on immobilized GLPS-F3. Format: binding, Ganoderma lucidum. Conditions: GLPS-F3 100 ng/well; receptor.Fc 1 μg/ml. On the procedure:
The interactions of polysaccharides with receptor.Fc fusion proteins was further investigated by performing an enzyme-linked immunoassay, which was based on immobilizing GLPS-F3 through both hydrophilic and hydrophobic forces onto microtiter plates (polysytrene). In this format, the number of different receptor.Fc fusions for profiling was increased in comparison to Example 7. To optimize the quantity of GLPS-F3 for immobilization, various amounts (3-1000 ng/well, diluted in 100 mM Tris buffer, pH9.5) of biotinylated-GLPS-F3 (Biotin-GLPS-F3) were coated onto MaxiSorp StarWell microtiter plates (50 μL/well; Nunc). The plates were incubated overnight at 4° C., and then the wells were washed twice with TBST, followed by blocking with 200 μL blocking buffer (2% BSA/TBST) for 1 hour at room temperature. Peroxidase-conjugated avidin (1:5000 dilution, Vector Laboratories) and TMB (tetramethylbenzidine) substrate was then used for detection of immobilized biotinylated GLPS-F3.
The interaction between GLPS-F3 and receptor.Fc was then tested. […] Wells were incubated with 100 μL TMB substrate for 15 min after TBST washing and read at 450 nm in a Fusion plate reader (Perkin Elmer). […]

Test [2] relates to Dengue virus. Description: ELISA of receptor.Fc interaction with Dengue virus. It is filed as binding. Particulars: for binding to DV pretreated with heat or dithiothreitol: 95° C. 5 min or DTT 0.1 M; for binding to DV pretreated with PNGaseF: PNGaseF 500 U; for interaction of receptor.Fc with Dengue virus (ELISA): receptor.Fc 1 μg, DV 5×10^6. On the procedure: One μg of each receptor.Fc fusion protein was coated onto microtiter plates overnight at 4° C. DV (5×10^6 particles) of strain 16681 (a DEN2 strain) in binding buffer (1% BSA, 2 mM CaCl2, 2 mM MgCl2, 50 mM Tris-HCl pH 7.5, 150 mM NaCl) was then added to the plates and the plates were incubated for 2 hours. After washing non-bound virus, a biotinylated anti-DEN2 envelope protein antibody (Wu et al., J Virol, 2002. 76(8): p. 3596-604) was applied to bind to the virus for 1 hour. Diluted horseradish peroxidase-conjugated streptavidin was then added to the plates, followed by a 1 hour incubation. TMB substrate was then added and the plates were read using an ELISA reader at OD450 nm.
The microtiter plate assay was repeated in the presence of EDTA (10 mM) to chelate Ca^++ cations.
The microtiter plate assay was also repeated for DVLR1/CLEC5A.Fc fusion protein with DV particles (5×10^6) that had been 1) preincubated with 500 U of the glycosidase PNGaseF (New England Biolabs, Inc.) overnight at 37° C.; or 2) treated with dithiothreitol (DTTI) (0.1M); or 3) incubated at 95° C. for 5 minutes; or 4) UV irradiated for 5 minutes. The results are shown in FIG. 8D (asterisks indicate where the binding affinity of DVLR1/CLEC5A.Fc fusion protein is altered by modification of the virus relative to non-treated virus; ** p<0.01, *** p<0.001, Student's t test). […]

Test [3] deals with Dengue virus. Kind of test: Immunoprecipitation of Dengue virus with receptor.Fc. Format: binding. Particulars: receptor.Fc 5 μg; DV 5×10^6; listed as DVLR1/CLEC5A.Fc. On the procedure: The results are depicted in FIG. 8A (** indicates p<0.01, *** indicates p<0.001 (Student's t test)). […] Specifically, 5×10^6 Dengue virus particles were incubated with 5 μg of each protein, and then Protein A beads were added. The resulting immunocomplexes were washed, separated by SDS-PAGE, and transferred onto nitrocellulose membrane. The membrane was then probed with biotinylated anti-DEN2 envelope protein antibody and developed with horseradish peroxidase-conjugated streptavidin.
In FIG. 16b, complexes of DV (5×10^6 PFU) with receptor.Fc (5 μg) were immunoprecipitated and detected on westerns with mAb to DV envelope (E) protein. […] FIGS. 16d and 16e show sugar competition assays wherein both DC-SIGN (CLEC4L) and DVLR1/CLEC5A increase DV binding to human 293T cells (FIG. 16d), while addition of sugars inhibits biotinylated DV binding to DC-SIGN- (left panel) or DLVR1/CLEC5A- (right panel) transfected 293T cells in a dose-dependent manner as determined by flow cytometry (FIG. 16e). According to FIG. 16e, MFI represents mean fluorescence intensity. Units (U) for monosaccharide (mannose and fucose) and polysaccharide (mannan) are mM and mg/ml, respectively. […] Data are expressed as the mean±s.d. of three independent experiments. Two-tailed, Student's t-tests were performed. […]

In the next test the test system is JEV. Description: ELISA of DVLR1/CLEC5A.Fc interaction with JEV. It is filed as binding, Japanese encephamyelitis virus. Conditions: 1 μg; JEV 5×10^6 PFU. On the procedure:
Like with DV, JEV follows a similar virus infection response pattern, which is believed to be the same or similar in all flaviviruses. […] (1 μg), with JEV and DV (5×10^6 PFU), respectively, were determined by ELISA. DV interacts with human DVLR1/CLEC5A (187 amino acid in length) SEQ ID NO: 72, but not the alternatively spliced form sDVLR1/CLEC5A (aa 43-65 is deleted). SEQ ID NO: 73. […] DAP12 in DV-infected macrophages were precipitated by anti-DAP12 mAb, blotted to nitrocellulose paper after fractionation on SDS-PAGE, followed by incubation with antibodies against phosphotyrosine and DAP12, respectively. JEV-induced DAP12 phosphorylation (m.o.i.=5) is inhibited by pLL3.7/DVLR1/CLEC5A. […] JEV-induced TNF-α secretion is inhibited by […] mAb (right). Data are expressed as the mean±s.d. of three independent experiments.

B1: Fc.MDL-1: extracellular domain of human DVLR1/CLEC5A (MDL-1) fused to the Fc portion of human IgG1 (protein)
chain: MNWHMIISGLIVVVLKVVGMTLFLLYFPQIFNKSNDGFTTTRSYGTVSQIFGSSSPSPNGFITTRSYGTVCPKDWEFYQARCFFLSTSESSWNESRDFCKGKGSTLAIVNTPEKLFLQDITDAEKYFIGLIYHREEKRWRWINNSVFNGNVTNQNQNFNCATIGLTKTFDAASCDISYRRICEKNAK
As for B1, in test [1], the “binding ability to GLPS-F3” value is reported as “minimal binding ability”. In the test on Dengue virus [2], the “binding to DV pretreated with heat or dithiothreitol” value is “abolish”, the “binding to DV pretreated with PNGaseF” value is given as “substantially reduced” and the “interaction of receptor.Fc with Dengue virus (ELISA)” value is “binds; also recorded: interacts”. In the test on Dengue virus [2] (listed as DVLR1/CLEC5A.Fc), the “binding to DV pretreated with heat or dithiothreitol” value is recorded as “almost completely inhibited”, the “binding to DV pretreated with PNGaseF” value was “inhibited DVLR1/CLEC5A.Fc interaction significantly” and the “interaction of receptor.Fc with Dengue virus (ELISA)” value is recorded as “able to capture DV2”. Further, the “Ca^++ dependence of binding to Dengue virus” value in the test with Dengue virus [2] (EDTA 10 mM) is reported as “Ca^++ independent; also recorded: no effect”. Further, the “immunoprecipitation of Dengue virus (E protein detected)” value in the test with Dengue virus [3] was “able to immunoprecipitate DV; also recorded: detected”. Moreover, the “interaction with JEV (ELISA)” value in the test with JEV is listed as “not”.
